Data reported in the supplement of paper PMC10065799, “High-throughput profiling of sequence recognition by tyrosine kinases and SH2 domains using bacterial peptide display” (eLife, 2023).

Columns and labels:
AncSZ = test: phosphorylation enrichment, bacterial display (enrichment ratio); higher = better substrate or ligand; peptides without Tyr show the background
EPHB1 = EPHB1 (UniProt P54762); test: as above
EPHB2 = EPHB2 (UniProt P29323); test: as above
FGFR1 = FGFR1 (UniProt P11362); test: as above
FGFR3 = FGFR3 (UniProt P22607); test: as above
Fer (mouse) = test: as above
Fes = Fes (UniProt P07332); test: as above
Fes, sequence (P07332 whole entry, looked up): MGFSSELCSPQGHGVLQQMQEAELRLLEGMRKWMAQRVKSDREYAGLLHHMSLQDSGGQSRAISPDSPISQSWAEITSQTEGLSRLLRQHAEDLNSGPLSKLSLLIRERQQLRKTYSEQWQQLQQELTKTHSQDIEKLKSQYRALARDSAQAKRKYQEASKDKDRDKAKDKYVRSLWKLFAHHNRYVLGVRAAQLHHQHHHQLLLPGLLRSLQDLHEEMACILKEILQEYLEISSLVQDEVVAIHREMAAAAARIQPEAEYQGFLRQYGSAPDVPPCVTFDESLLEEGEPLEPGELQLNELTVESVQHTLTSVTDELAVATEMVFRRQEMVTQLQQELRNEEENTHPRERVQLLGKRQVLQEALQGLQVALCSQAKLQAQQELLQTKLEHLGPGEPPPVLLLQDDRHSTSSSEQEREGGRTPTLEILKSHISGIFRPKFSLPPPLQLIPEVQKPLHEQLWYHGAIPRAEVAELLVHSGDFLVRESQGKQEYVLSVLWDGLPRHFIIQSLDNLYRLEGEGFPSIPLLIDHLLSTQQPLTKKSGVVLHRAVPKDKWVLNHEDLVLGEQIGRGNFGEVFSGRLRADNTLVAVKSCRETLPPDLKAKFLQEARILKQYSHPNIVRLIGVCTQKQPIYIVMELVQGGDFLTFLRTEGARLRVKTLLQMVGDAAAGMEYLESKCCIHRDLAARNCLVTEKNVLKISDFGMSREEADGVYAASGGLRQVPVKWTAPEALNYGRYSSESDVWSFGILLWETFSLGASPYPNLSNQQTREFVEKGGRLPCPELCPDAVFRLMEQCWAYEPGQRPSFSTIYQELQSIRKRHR

Fyn = Fyn (UniProt P06241); test: as above
Hck = Hck (UniProt P08631); test: as above
Jak2 = Jak2 (UniProt O60674); test: as above
Jak2, sequence (O60674 whole entry, looked up): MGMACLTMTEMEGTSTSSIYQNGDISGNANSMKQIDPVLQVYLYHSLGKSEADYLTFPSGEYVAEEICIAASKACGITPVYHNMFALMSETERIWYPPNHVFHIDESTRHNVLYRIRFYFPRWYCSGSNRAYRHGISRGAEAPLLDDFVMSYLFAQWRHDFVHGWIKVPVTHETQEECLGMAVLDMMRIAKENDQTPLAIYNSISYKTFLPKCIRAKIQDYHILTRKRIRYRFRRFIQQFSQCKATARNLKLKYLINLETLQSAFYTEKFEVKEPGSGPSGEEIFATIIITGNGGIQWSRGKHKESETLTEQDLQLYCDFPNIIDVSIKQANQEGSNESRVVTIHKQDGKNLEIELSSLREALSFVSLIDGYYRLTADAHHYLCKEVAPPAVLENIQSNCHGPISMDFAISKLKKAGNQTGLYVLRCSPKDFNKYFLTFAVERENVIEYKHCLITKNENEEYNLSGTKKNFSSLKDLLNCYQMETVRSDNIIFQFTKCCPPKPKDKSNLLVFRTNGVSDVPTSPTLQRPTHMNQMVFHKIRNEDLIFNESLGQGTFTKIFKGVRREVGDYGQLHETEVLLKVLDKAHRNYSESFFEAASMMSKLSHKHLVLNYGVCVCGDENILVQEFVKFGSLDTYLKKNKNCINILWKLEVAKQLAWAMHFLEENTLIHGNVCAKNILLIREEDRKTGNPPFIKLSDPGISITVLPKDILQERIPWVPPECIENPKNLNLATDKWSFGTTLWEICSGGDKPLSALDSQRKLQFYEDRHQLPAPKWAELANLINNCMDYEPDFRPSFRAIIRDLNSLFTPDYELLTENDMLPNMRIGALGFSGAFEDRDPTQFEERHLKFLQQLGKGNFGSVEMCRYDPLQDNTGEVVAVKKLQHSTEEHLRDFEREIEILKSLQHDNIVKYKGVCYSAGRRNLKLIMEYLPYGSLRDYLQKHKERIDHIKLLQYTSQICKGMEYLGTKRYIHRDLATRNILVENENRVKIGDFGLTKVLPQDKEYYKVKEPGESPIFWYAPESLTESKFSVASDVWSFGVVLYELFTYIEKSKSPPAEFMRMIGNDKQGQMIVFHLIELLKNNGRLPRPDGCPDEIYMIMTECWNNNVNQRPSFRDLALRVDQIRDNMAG

MERTK = MERTK (UniProt Q12866); test: as above
MERTK, sequence (Q12866 whole entry, looked up): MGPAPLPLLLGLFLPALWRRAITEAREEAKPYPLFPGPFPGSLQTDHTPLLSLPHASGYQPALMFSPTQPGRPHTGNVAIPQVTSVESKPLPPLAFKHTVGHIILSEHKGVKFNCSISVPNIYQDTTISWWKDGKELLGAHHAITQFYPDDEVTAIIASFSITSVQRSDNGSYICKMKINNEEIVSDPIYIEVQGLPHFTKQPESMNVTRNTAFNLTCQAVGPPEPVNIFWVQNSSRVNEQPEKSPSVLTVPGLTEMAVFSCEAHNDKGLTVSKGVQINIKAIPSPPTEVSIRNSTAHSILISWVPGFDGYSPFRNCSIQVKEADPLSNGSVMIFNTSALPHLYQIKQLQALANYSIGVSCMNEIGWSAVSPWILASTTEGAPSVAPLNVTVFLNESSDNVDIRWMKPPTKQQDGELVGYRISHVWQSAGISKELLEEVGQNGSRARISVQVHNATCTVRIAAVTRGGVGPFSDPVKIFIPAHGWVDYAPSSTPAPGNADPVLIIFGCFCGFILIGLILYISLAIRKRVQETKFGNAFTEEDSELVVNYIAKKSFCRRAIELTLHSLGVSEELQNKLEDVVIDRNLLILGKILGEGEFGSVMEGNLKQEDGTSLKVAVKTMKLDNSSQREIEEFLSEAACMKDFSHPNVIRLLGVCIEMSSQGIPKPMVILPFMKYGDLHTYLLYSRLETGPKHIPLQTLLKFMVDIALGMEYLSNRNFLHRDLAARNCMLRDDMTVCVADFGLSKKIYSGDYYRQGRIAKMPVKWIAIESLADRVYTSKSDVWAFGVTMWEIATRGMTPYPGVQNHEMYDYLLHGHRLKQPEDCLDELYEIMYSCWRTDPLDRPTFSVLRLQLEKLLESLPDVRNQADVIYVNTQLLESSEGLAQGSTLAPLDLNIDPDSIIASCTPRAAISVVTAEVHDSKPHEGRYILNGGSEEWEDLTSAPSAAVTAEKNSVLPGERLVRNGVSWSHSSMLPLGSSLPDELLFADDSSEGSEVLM

c-Abl (mouse) = test: as above
c-Src = test: as above
Grb2 SH2 = Grb2 SH2 (UniProt P62993); test: SH2 binding enrichment of the phosphorylated peptide, bacterial display (enrichment ratio); higher = better substrate or ligand; peptides without Tyr show the background
SHP2-C SH2 = test: as above
c-Src SH2 = test: as above
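For SH2 binding enrichment of the phosphorylated peptide, bacterial display in this document: peptide library displayed on the E. coli surface as eCPX fusions, selected cells deep-sequenced, score is each peptide's frequency after selection divided by its frequency in the input.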
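For phosphorylation enrichment, bacterial display in this document: 11-residue human phosphosite peptides and single-mutation variants displayed on the E. coli surface, counted by deep sequencing, each peptide's frequency after selection divided by its frequency in the unselected input library; frequency after pTyr selection over input frequency; kinase dosed for 20-30% of maximal phosphorylation in three min.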

EPHB1, sequence (P54762 whole entry, looked up): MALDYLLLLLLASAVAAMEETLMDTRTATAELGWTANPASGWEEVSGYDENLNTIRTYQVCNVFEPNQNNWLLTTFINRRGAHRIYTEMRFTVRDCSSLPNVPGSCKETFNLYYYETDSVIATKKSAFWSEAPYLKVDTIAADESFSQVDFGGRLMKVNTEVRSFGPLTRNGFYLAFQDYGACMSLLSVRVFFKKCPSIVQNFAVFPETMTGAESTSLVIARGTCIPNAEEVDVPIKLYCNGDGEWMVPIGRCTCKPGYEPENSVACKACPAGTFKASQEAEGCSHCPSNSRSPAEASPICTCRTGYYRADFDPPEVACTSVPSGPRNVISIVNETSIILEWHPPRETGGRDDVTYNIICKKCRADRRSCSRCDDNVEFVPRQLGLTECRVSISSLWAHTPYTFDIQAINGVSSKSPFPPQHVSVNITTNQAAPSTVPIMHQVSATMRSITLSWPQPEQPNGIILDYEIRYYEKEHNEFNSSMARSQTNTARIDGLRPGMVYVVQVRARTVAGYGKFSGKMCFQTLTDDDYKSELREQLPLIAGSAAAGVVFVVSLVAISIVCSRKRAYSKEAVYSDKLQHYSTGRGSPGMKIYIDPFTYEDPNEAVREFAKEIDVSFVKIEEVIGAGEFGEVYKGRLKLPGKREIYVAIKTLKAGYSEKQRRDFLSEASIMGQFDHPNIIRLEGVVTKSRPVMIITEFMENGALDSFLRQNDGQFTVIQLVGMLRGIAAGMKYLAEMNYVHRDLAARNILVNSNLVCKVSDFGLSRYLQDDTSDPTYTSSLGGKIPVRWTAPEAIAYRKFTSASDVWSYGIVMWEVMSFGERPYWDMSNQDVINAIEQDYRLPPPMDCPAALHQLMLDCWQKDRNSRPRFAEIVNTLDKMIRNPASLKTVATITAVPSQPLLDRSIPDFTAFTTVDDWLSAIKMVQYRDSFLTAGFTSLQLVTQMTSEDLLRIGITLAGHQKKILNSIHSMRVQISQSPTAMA
EPHB2, sequence (P29323 whole entry, looked up): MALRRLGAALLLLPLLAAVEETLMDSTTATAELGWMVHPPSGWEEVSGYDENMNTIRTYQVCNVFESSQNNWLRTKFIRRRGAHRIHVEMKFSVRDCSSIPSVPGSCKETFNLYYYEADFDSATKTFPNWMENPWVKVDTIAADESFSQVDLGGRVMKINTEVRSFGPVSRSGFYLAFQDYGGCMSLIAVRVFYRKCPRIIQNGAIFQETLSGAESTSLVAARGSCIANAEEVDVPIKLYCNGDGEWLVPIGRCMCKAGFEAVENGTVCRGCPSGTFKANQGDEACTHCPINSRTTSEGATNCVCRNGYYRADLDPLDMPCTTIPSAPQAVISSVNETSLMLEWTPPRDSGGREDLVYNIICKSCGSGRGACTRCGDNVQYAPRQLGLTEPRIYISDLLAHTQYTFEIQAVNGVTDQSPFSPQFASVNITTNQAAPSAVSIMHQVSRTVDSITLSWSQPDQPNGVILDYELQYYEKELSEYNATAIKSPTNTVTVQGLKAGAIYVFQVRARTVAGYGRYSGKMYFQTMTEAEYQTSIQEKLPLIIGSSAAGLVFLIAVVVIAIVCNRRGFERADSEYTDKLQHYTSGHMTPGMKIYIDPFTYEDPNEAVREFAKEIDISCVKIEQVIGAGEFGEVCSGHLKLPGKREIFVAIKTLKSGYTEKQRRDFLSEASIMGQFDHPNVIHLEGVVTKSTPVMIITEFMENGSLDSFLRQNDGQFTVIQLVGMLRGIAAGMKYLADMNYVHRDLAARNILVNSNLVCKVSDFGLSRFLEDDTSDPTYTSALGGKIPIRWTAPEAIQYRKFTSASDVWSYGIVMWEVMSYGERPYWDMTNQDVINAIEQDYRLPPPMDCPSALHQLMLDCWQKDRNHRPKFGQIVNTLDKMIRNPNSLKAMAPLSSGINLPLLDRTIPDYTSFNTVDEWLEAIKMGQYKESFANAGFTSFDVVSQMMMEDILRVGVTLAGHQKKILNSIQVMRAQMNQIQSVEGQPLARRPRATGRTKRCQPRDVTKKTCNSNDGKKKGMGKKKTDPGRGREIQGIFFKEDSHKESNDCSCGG

Sequence	phosphorylation enrichment (AncSZ)	phosphorylation enrichment (EPHB1)	phosphorylation enrichment (EPHB2)	phosphorylation enrichment (FGFR1)	phosphorylation enrichment (FGFR3)	phosphorylation enrichment (Fer (mouse))	phosphorylation enrichment (Fes)	phosphorylation enrichment (Fyn)	phosphorylation enrichment (Hck)	phosphorylation enrichment (Jak2)	phosphorylation enrichment (MERTK)	phosphorylation enrichment (c-Abl (mouse))	phosphorylation enrichment (c-Src)	SH2 binding enrichment (Grb2 SH2)	SH2 binding enrichment (SHP2-C SH2)	SH2 binding enrichment (c-Src SH2)
LHQSTYQRFDV [SLC7A14_Y693_YF]	1.31	1.45	1.17	1.14	1.18	0.955	1.32	1.83	1.77	0.652	1.19	0.838	2.69	1.03	0.635	0.897
LHQSTYQRYDV [SLC7A14_Y693]	0.341	0.293	0.53	0.236	0.426	0.392	0.404	0.458	0.505	0.545	0.364	0.444	1.11	0.772	0.694	1.16
LHSEAYLKFIE [PBRM1_Y1610_YF]	1.56	0.877	0.881	0.939	1.21	1.1	1.51	0.856	0.813	1.37	0.556	0.886	0.486	0.887	0.881	0.39
LIHLHYIRKDY [BBS4_Y43]	1.21	0.602	0.63	0.517	0.763	0.447	1.14	0.548	0.444	0.857	0.377	0.632	0.393	1.69	1.88	1.71
LKEIHYPPYTD [ALDH3B2_Y362]	1.18	0.735	0.744	0.645	0.826	0.584	1.17	0.718	0.929	1.01	0.573	0.763	0.917	0.896	0.975	0.654
LKVQVYILGRE [ASS1_Y359_G356V]	3.58	1.58	1.88	1.34	1.95	1.59	5.15	1.13	1.49	3.33	1.36	2.44	1.39	1.46	0.968	0.804
LLANAYIFVVQ [L1CAM_Y418_YF]	1.46	0.757	1.13	1	1.18	0.793	2.13	0.606	0.569	1.79	0.482	1.44	0.538	1.31	0.605	0.396
LLINKYGLSDH [SCP2_Y151_A155D]	1.08	0.646	0.62	0.546	0.849	0.709	1.45	0.678	0.826	1.19	0.645	0.794	0.712	0.939	1.11	0.44
LLKKVYLMLDN [STAT1_Y203_M202V]	1.82	0.93	0.953	0.968	1.15	0.801	2.19	0.627	0.658	1.85	0.704	1.34	0.816	0.96	0.793	0.566
LNPDGYEKAFE [CPXM2_Y427_YF]	1.15	0.667	0.988	0.769	0.704	0.557	1.49	0.576	0.586	0.995	0.483	1.05	0.738	0.868	0.77	3.95
LNPDGYKKAYE [CPXM2_Y427_E428K]	0.905	0.605	0.749	0.86	1.46	0.619	1.14	0.676	0.515	1	0.734	1.35	0.513	0.744	0.613	0.444
LNPFIYSLRNC [OR1A2_Y288_W293C]	1.45	0.826	1.24	0.902	1.2	1	2.72	4.37	5.22	1.11	1.04	0.792	6.28	0.69	0.734	0.624
LNPLIYTLRNA [OR4C46_Y285_K288R]	1.79	0.576	0.9	0.922	0.863	1.03	1.12	4.69	7.15	1.31	1.97	1.76	6.62	0.798	0.738	0.521
LNPVVYTLRNA [OR4C12_Y285]	1.26	0.761	0.636	0.593	0.69	0.856	1.09	0.635	1.27	1.5	0.971	1.2	1.92	0.77	1.37	0.629
LPQDGYRIVQH [PTPRT_Y1329_R1324L]	0.672	0.402	0.423	0.403	0.55	0.408	0.809	0.43	0.418	0.575	0.361	0.716	0.346	0.727	0.708	0.44
LQEQNYPAVDS [FAM114A1_Y115_L116P]	2.01	1.37	1.26	0.988	1.54	0.878	1.86	0.92	0.739	1.54	0.81	1.13	0.699	0.698	0.508	0.655
LQTYRYHGHSM [PDHA1_Y289]	0.52	0.489	0.337	0.323	0.395	0.455	0.513	0.414	0.288	0.569	0.698	0.411	0.285	0.879	0.646	0.561
LRAGVYHEKDQ [DNM2_Y626_P627H]	0.735	0.629	0.451	0.635	0.763	0.509	1.29	0.608	0.605	1.08	0.491	0.877	0.617	0.92	0.657	0.445
LRFDSYSSFCN [SLC20A2_Y433_YF]	1.54	0.736	0.734	0.703	1.1	0.617	1.52	0.464	0.687	1.37	0.479	0.833	0.642	0.805	0.612	0.519
LRRFIYRPPDR [OTOF_Y1231]	0.825	0.529	0.656	0.808	0.656	0.583	1.18	0.678	0.854	0.809	0.824	0.485	0.954	0.538	0.504	0.725
LSSNLYFRWLT [CNGA3_Y168_P163L_YF]	1.76	0.783	0.749	1.15	1.51	1.01	1.64	0.595	1.73	5.07	4.32	1.79	1.21	0.655	1.01	0.531
LTPVKYLLSAT [GSDMC_Y26]	0.515	0.585	0.412	0.46	0.508	0.282	0.616	0.396	0.429	0.433	0.425	0.593	0.345	1.08	1.05	0.537
LWEGSYGKVKE [STK11_Y60_G56W]	0.872	0.476	0.491	0.587	0.77	0.647	2.28	0.623	0.678	1.08	0.509	0.69	0.721	0.645	1.21	0.507
LYYYSYLLKNH [PTEN_Y180_V175L]	1.64	3.44	1.65	4.27	3.79	0.959	1.3	0.946	1.49	2.46	4.98	1.97	1.06	1.05	1.23	0.666
MARDIYQASFF [LTK_Y672_R673Q_YF]	0.966	2.15	1.7	0.679	0.564	3.26	0.887	6.4	7.31	0.992	5.44	5.43	6.07	0.972	0.678	0.466
MDFRSYPREFG [RBM10_Y44_YF]	0.606	0.437	0.454	0.529	0.511	0.366	0.858	0.366	0.388	0.63	0.352	0.455	0.431	1.09	0.975	0.578
MEVGQYFFVKC [CYBB_Y324_I325F]	2.28	0.861	0.8	4.99	4.7	0.801	1.69	0.551	0.719	2.56	1.13	1.39	0.667	0.716	0.61	0.44
MFCAGYDTKQE [F10_Y407]	1.11	0.81	0.805	0.518	0.877	0.652	1.47	0.539	0.632	1.38	0.48	0.793	0.584	0.65	0.727	0.495
MIHSAYALGGL [CPS1_Y590_R587H]	0.53	0.36	0.428	0.388	0.471	0.626	0.592	0.566	0.464	0.502	0.409	0.373	0.489	0.883	0.64	0.716
